Experimental data published in patent publication US20160326532A1 (MAYO FOUNDATION FOR MEDICAL EDUCATION AND RESEARCH, published 2016).
Each block holds one binder with its values, some of them ahead of it.

Tests used:
HIF-1α, endogenous = biological target: T1, HIF-1α, endogenous (UniProt Q16665 1-826); experiment: co-immunoprecipitation of endogenous proteins from HEK 293T cell extracts (FIG. 8A)
T1 construct: also called HIF-1alpha; hypoxia-inducible factor 1 alpha
Method: To study endogenous WSB1/pVHL binding, cells were treated with or without 10 μM MG 132 (Sigma) for 2 hours. Cells were lysed by sonication in NETN buffer (20 mM Tris-HCl, pH 8.0, 100 mM NaCl, 1 mM EDTA, 0.5% Nonidet P-40) containing 50 mM b-glycerophosphate, 10 mM NaF, and […] each of pepstatin A and aprotinin, freshly supplemented with protease inhibitor cocktail (Roche). Prior to immunoprecipitation, protein A-bound Agarose beads were incubated overnight with pVHL antibody (Cell Signaling, #2738), WSB1 antibody (Abcam, ab68953; Sigma, HPA003293; Proteintech, 1166-1-AP), or HIF-1α antibody (Abcam, ab51608) in PBS with 5% BSA at 4° C. ab68953 was used for most experiments (HPA003293 for IHC). Extracts were added before immunoprecipitation with protein-A agarose at 4° C. for 4 hours. After three washings in binding buffer, co-purified proteins were analyzed by Western blotting.

HA-tagged HIF-1α = biological target: T2, HA-tagged HIF-1α (UniProt Q16665 1-826); experiment: co-immunoprecipitation of exogenous proteins from HEK 293T cell extracts (FIG. 9A)
T2 construct: Plasmid from Addgene; also called exogenous HIF-1α; not shown: HA tag
T2 sequence (Q16665 whole entry): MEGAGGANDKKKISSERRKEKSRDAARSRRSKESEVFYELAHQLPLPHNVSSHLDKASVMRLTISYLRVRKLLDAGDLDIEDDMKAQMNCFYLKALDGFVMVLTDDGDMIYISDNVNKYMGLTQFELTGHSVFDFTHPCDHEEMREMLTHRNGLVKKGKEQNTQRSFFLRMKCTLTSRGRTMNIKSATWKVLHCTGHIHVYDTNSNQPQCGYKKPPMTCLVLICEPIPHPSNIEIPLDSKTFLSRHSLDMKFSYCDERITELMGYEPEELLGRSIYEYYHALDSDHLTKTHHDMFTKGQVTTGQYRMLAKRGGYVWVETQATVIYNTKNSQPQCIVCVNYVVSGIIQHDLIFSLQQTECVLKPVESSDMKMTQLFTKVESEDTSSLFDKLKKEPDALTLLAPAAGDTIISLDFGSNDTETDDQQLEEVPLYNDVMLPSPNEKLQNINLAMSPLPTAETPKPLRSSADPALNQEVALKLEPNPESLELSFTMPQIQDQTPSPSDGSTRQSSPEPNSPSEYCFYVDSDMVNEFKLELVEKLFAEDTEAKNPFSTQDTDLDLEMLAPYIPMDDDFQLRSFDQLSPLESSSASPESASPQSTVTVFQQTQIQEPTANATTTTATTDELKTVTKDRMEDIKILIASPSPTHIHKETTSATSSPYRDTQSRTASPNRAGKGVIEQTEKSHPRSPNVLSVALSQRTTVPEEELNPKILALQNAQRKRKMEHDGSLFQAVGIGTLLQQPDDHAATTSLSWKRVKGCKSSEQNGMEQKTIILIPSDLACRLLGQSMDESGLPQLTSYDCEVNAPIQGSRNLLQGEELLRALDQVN

T1 sequence (Q16665 whole entry): as above

binding result (HIF-1α, endogenous): no binding
B1: WD repeat and SOCS box-containing protein 1 (WSB1), endogenous (enzyme)
chain: MASFPPRVNEKEIVRLRTIGELLAPAAPFDKKCGRENWTVAFAPDGSYFAWSQGHRTVKLVPWSQCLQNFLLHGTKNVTNSSSLRLPRQNSDGGQKNKPREHIIDCGDIVWSLAFGSSVPEKQSRCVNIEWHRFRFGQDQLLLATGLNNGRIKIWDVYTGKLLLNLVDHTEVVRDLTFAPDGSLILVSASRDKTLRVWDLKDDGNMMKVLRGHQNWVYSCAFSPDSSMLCSVGASKAVFLWNMDKYTMIRKLEGHHHDVVACDFSPDGALLATASYDTRVYIWDPHNGDILMEFGHLFPPPTPIFAGGANDRWVRSVSFSHDGLHVASLADDKMVRFWRIDEDYPVQVAPLSNGLCCAFSTDGSVLAAGTHDGSVYFWATPRQVPSLQHLCRMSIRRVMPTQEVQELPIPSKLLEFLSYRI
notes: also called WBS1

binding result (HA-tagged HIF-1α): no binding
B2: Myc-tagged WSB1 (WT) (enzyme)
chain: B1 chain
notes: Plasmid obtained from Dr. Cheol Yong Choi; also called Myc-WSB1; WSB1-Myc; not shown: Myc tag
